Positions count from the first letter of the chain named. Numbers in names are those of the source.
Legend:
TnGalNAcT = assay: Transfer of 6-modified GalNAc-UDP derivatives to trimmed brentuximab by TnGalNAcT (mass spectrometric analysis); assay type: biochemical, Trichoplusia ni; conditions: sugar nucleotide 5 mM; TnGalNAcT 1.5 mg/mL; trimmed brentuximab 15 mg/mL; 30 °C overnight
Description: Bentuximab was trimmed analogues to the trimming of trastuzumab as described in example 6.
(§1) Trimmed bentuximab (15 mg/mL) was incubated with 6-amino-6-deoxy-GalNAc-UDP 94 (5 mM) and TnGalNAcT (1.5 mg/mL) in 10 mM MnCl2 and 25 mM Tris-HCl pH 8.0 at 30° C. overnight. A sample of the reaction mixture (2 μL) was incubated for 1 hour at 37° C. with Fabricator™ (1.25 U/μL) in phosphate-buffered saline (PBS) pH 6.6 in a total volume of 10 μL.
as §1, with “6-(2-azidoacetamido)-6-deoxy-GalNAc 93” for “6-amino-6-deoxy-GalNAc-UDP 94”

[1] = tested on: core GlcNAc(Fuc) substituted trastuzumab; assay: Glycosyltransfer of 6-azido-GalNAc-UDP to trimmed trastuzumab under the action of GalNAcTs (mass spectral analysis); assay type: biochemical; conditions: 6-azido-GalNAc-UDP 1 mM; for Conversions (%) of GlcNAc(Fuc) substituted trastuzumab into 6-azido-GalNAc-GlcNAc(Fuc)-substituted trastuzumab: trimmed trastuzumab 10 mg/mL; for product formation, mass spectral analysis of Fabricator-digested samples: both enzyme concentrations (0.2 or 0.5 mg/mL)
Description: (§2) Prior to mass spectral analysis, IgGs were either treated with DTT, which allows analysis of both light and heavy chain, or treated with Fabricator™ (commercially available from Genovis, Lund, Sweden), which allows analysis of the Fc/2 fragment. For analysis of both light and heavy chain, a solution of 20 μg (modified) IgG was incubated for 5 minutes at 37° C. with 100 mM DTT in a total volume of 4 μL. If present, azide-functionalities are reduced to amines under these conditions. For analysis of the Fc/2 fragment, a solution of 20 μg (modified) IgG was incubated for 1 hour at 37° C. with Fabricator™ (1.25 U/μL) in phosphate-buffered saline (PBS) pH 6.6 in a total volume of 10 μL. After reduction or Fabricator-digestion the samples were washed trice with milliQ using an Amicon Ultra-0.5, Ultracel-10 Membrane (Millipore) resulting in a final sample volume of approximately 40 μL. Next, the samples were analyzed by electrospray ionization time-of-flight (ESI-TOF) on a JEOL AccuTOF. Deconvoluted spectra were obtained using Magtran software.
Glycan trimming of trastuzumab was performed with endo S from Streptococcus pyogenes (commercially available from Genovis, Lund, Sweden). Thus, trastuzumab (10 mg/mL) was incubated with endo S (40 U/mL) in 25 mM Tris pH 8.0 for approximately 16 hours at 37° C. The deglycosylated IgG was concentrated and washed with 10 mM MnCl2 and 25 mM Tris-HCl pH 8.0 using an Amicon Ultra-0.5, Ultracel-10 Membrane (Millipore). […] The two peaks of heavy chain belonged to one major product (49496 Da, 90% of total heavy chain), resulting from core GlcNAc(Fuc) substituted trastuzumab, and a minor product (49351 Da, ±10% of total heavy chain), resulting from trimmed trastuzumab.
Incorporation of 6-azidoGalNAc was tested for CeGalNAcT(30-383) (identified by SEQ ID NO: 6), AsGalNAcT(30-383) (identified by SEQ ID NO: 7), TnGalNAcT(33-421) (identified by SEQ ID NO: 8) and DmGalNAcT(47-403) (identified by SEQ ID NO: 9), which were expressed and purified as described in example 5. Trimmed trastuzumab (10 mg/mL), obtained by endo S treatment of trastuzumab as described above, was incubated with 6-azido-GalNAc-UDP (1 mM, commercially available from GlycoHub) in 10 mM MnCl2 and 25 mM Tris-HCl pH 7.5 and either 0.2 or 0.5 mg/mL of one of the above mentioned GalNAcTs.

β-(1,4)-GalNAcT = β-(1,4)-GalNAcT (Caenorhabditis elegans, UniProt Q9GUM2); conditions: as donor substrate compared with UDP-GalNAc; cited from earlier work
Sequence of β-(1,4)-GalNAcT (Q9GUM2 whole entry): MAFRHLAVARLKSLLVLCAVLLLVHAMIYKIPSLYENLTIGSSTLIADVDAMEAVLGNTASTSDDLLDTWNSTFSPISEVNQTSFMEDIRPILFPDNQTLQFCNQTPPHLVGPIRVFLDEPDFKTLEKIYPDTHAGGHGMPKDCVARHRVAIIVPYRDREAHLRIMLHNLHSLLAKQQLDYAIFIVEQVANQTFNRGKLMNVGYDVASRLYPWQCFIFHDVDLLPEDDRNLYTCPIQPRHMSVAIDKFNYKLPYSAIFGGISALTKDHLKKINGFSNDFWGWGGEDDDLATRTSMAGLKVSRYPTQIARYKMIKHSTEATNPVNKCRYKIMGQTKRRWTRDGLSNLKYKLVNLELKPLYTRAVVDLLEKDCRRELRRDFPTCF

[2] = cited from earlier work
[3] = tested on: core GlcNAc(Fuc) substituted trastuzumab; assay: Glycosyltransfer of 6-azido-Gal-UDP to trimmed trastuzumab under the action of bovine β(1,4)-Gal-T1; assay type: biochemical; conditions: 0.1 or 0.5 mg/mL enzyme; 6-azido-Gal-UDP 1 mM; 30 °C overnight
Description: as §2
Glycan trimming of trastuzumab was performed with endo S from Streptococcus pyogenes (commercially available from Genovis, Lund, Sweden). Thus, trastuzumab (10 mg/mL) was incubated with endo S (40 U/mL) in 25 mM Tris pH 8.0 for approximately 16 hours at 37° C. […]

CC(=O)NC1C(OP(=O)(O)OP(=O)(O)OCC2OC(n3ccc(=O)[nH]c3=O)C(O)C2O)OC(CNC(=O)CN=[N+]=[N-])C(O)C1O (stereo not drawn) [compound 93, 6-(2-azidoacetamido)-6-deoxy-GalNAc-UDP]
conversion to the modified brentuximab product (TnGalNAcT): 70%

CeGalNAcT (30-383): truncated Caenorhabditis elegans β-(1,4)-GalNAcT enzyme, amino acids 30-383 of SEQ ID NO: 2
Conversions (%) of GlcNAc(Fuc) substituted trastuzumab into 6-azido-GalNAc-GlcNAc(Fuc)-substituted trastuzumab ([1]; 0.2 mg/mL enzyme): 0% | Conversions (%) of GlcNAc(Fuc) substituted trastuzumab into 6-azido-GalNAc-GlcNAc(Fuc)-substituted trastuzumab ([1]; 0.5 mg/mL enzyme): 0% | product formation, mass spectral analysis of Fabricator-digested samples [1]: no product formation

CC(=O)N[C@H]1[C@@H](OP(=O)(O)OP(=O)(O)OC[C@H]2O[C@@H](n3ccc(=O)[nH]c3=O)[C@H](O)[C@@H]2O)O[C@H](CO)[C@@H](O)[C@@H]1O [UDP-GlcNAc]
transferase activity remains (β-(1,4)-GalNAcT): 0.7%

CC(=O)NC1C(OP(=O)(O)OP(=O)(O)OCC2OC(n3ccc(=O)[nH]c3=O)C(O)C2O)OC(CN)C(O)C1O (stereo not drawn) [compound 94, 6-amino-6-deoxy-GalNAc-UDP]
conversion to the modified brentuximab product (TnGalNAcT): full conversion

B1: AsGalNAcT (30-383): truncated Ascaris sum β-(1,4)-GalNAcT enzyme, amino acids 30-383 of SEQ ID NO: 3 (protein)
chain: DYSFWSPAFIISAPKTLTTLQPFSQSTSTNDLAVSALESVEFSMLDNSSILHASDNWTNDELVMRAQNENLQLCPMTPPALVGPIKVWMDAPSFAELERLYPFLEPGGHGMPTACRARHRVAIVVPYRDRESHLRTFLHNLHSLLTKQQLDYAIFVVEQTANETFNRAKLMNVGYAEAIRLYDWRCFIFHDVDLLPEDDRNLYSCPDEPRHMSVAVDKFNYKLPYGSIFGGISALTREQFEGINGFSNDYWGWGGEDDDLSTRVTLAGYKISRYPAEIARYKMIKHNSEKKNPVNRCRYKLMSATKSRWRNDGLSSLSYDLISLGRLPLYTHIKVDLLEKQSRRYLRTHGFPTC
modifications: AsGalNAcT (30-383)
Conversions (%) of GlcNAc(Fuc) substituted trastuzumab into 6-azido-GalNAc-GlcNAc(Fuc)-substituted trastuzumab ([1]; 0.2 mg/mL enzyme): 10% | Conversions (%) of GlcNAc(Fuc) substituted trastuzumab into 6-azido-GalNAc-GlcNAc(Fuc)-substituted trastuzumab ([1]; 0.5 mg/mL enzyme): 30% | product formation, mass spectral analysis of Fabricator-digested samples [1]: partial conversion

B2: TnGalNAcT (33-421): truncated Trichoplusia ni β-(1,4)-GalNAcT enzyme, amino acids 33-421 of SEQ ID NO: 4 (protein)
chain: SPLRTYLYTPLYNATQPTLRNVERLAANWPKKIPSNYIEDSEEYSIKNISLSNHTTRASVVHPPSSITETASKLDKNMTIQDGAFAMISPTPLLITKLMDSIKSYVTTEDGVKKAEAVVTLPLCDSMPPDLGPITLNKTELELEWVEKKFPEVEWGGRYSPPNCTARHRVAIIVPYRDRQQHLAIFLNHMHPFLMKQQIEYGIFIVEQEGNKDFNRAKLMNVGFVESQKLVAEGWQCFVFHDIDLLPLDTRNLYSCPRQPRHMSASIDKLHFKLPYEDIFGGVSAMTLEQFTRVNGFSNKYWGWGGEDDDMSYRLKKINYHIARYKMSIARYAMLDHKKSTPNPKRYQLLSQTSKTFQKDGLSTLEYELVQVVQYHLYTHILVNIDERS
modifications: TnGalNAcT(33-421)
Conversions (%) of GlcNAc(Fuc) substituted trastuzumab into 6-azido-GalNAc-GlcNAc(Fuc)-substituted trastuzumab ([1]; 0.2 mg/mL enzyme): 40% | Conversions (%) of GlcNAc(Fuc) substituted trastuzumab into 6-azido-GalNAc-GlcNAc(Fuc)-substituted trastuzumab ([1]; 0.5 mg/mL enzyme): 60% | product formation, mass spectral analysis of Fabricator-digested samples [1]: partial conversion

B3: β4GalT(Y289L,M344H): double mutant β-1,4-galactosyltransferase described by Ramakrishnan et al. (protein, UniProt P08037 1-402, looked up, variant Y289L M344H)
chain: MKFREPLLGGSAAMPGASLQRACRLLVAVCALHLGVTLVYYLAGRDLRRLPQLVGVHPPLQGSSHGAAAIGQPSGELRLRGVAPPPPLQNSSKPRSRAPSNLDAYSHPGPGPGPGSNLTSAPVPSTTTRSLTACPEESPLLVGPMLIEFNIPVDLKLVEQQNPKVKLGGRYTPMDCISPHKVAIIIPFRNRQEHLKYWLYYLHPILQRQQLDYGIYVINQAGESMFNRAKLLNVGFKEALKDYDYNCFVFSDVDLIPMNDHNTYRCFSQPRHISVAMDKFGFSLPYVQLFGGVSALSKQQFLSINGFPNNYWGWGGEDDDIYNRLAFRGMSVSRPNAVIGKCRHIRHSRDKKNEPNPQRFDRIAHTKETMLSDGLNSLTYMVLEVQRYPLYTKITVDIGTPS
activity in the presence of Mg2+ ([2]; Mg2+): 25-30% | loss of Mn2+-dependent activity ([2]; Mn2+): 98%

B4: bovine β(1,4)-Gal-T1: bovine β(1,4)-galactosyltransferase, commercially available from Sigma Aldrich (protein)
chain: B3 chain with V158I, P187L, I205M, L206V, H344M
modifications: Bos Taurus GalT Y289L mutant
notes: bovine β(1,4)-galactosyltransferase, commercially available from Sigma Aldrich
product formation, mass spectral analysis of reduced samples [3]: no product formation

B5: DmGalNAcT (47-403): truncated Drosophila melanogaster β-(1,4)-GalNAcT enzyme, amino acids 47-403 of SEQ ID NO: 5 (protein)
chain: HKYAHIYGNASSDGAGGSEASRLPASPLALSKDRERDQELNGGPNSTIRTVIATANFTSIPQDLTRFLLGTKKFLPPRQKSTSALLANCTDPDPRDGGPITPNTTLESLDVIEAELGPLLRPGGAFEPENCNAQHHVAIVVPFRDRYAHLLLFLRNIHPFLMKQRIAYRIFIVEQTNGKPFNRAAMMNIGYLEALKLYQWDCFIFHDVDLLPLDDRNLYNCPRQPRHMSVAIDTLNFRLPYRSIFGGVSAMTREHFQAVNGFSNSFFGWGGEDDDMSNRLKHANLFISRYPVNIARYKMLKHQKEKANPKRYENLQNGMSKIEQDGINSIKYSIYSIKQFPTFTWYLAELKNSERKS
modifications: DmGalNAcT (47-403)
Conversions (%) of GlcNAc(Fuc) substituted trastuzumab into 6-azido-GalNAc-GlcNAc(Fuc)-substituted trastuzumab ([1]; 0.2 mg/mL enzyme): 0% | Conversions (%) of GlcNAc(Fuc) substituted trastuzumab into 6-azido-GalNAc-GlcNAc(Fuc)-substituted trastuzumab ([1]; 0.5 mg/mL enzyme): 0% | product formation, mass spectral analysis of Fabricator-digested samples [1]: no product formation
